According to paper PMC4173783:

How the values were obtained:
[1] = molecular target: recombinant GpA extracellular domain fused to Fc and His tag (rGpA-Fc-His) (human) (UniProt P02724); test: SDS-PAGE without and with reducing agent
[2] = molecular target: Plasmodium falciparum EBA-175 region II (P. falciparum)
[3] = molecular target: recombinant GpA extracellular domain fused to Fc and His tag (rGpA-Fc-His) (human) (UniProt P02724); test: AUC

Substance: recombinant GpA extracellular domain fused to Fc and His tag (rGpA-Fc-His) (from UniProt P02724 23-84) (Fc fusion)
- stoichiometry N [1]: 2
- parasite growth with 30 µM rGpA, strains 3D7, Dd2 and FVO/FCR1 [2]: 50%
- stoichiometry N [3]: 2
